Changes are numbered by the printed parent chain.
T1: cynomolgus galectin-10-His, WGS isoform (cynomolgus)
T1 construct: not shown: His tag
T1 chain: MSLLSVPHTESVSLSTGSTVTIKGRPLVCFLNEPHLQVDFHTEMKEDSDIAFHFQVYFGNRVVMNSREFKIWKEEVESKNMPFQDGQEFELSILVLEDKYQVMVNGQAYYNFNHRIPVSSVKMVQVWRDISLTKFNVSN

T2: human galectin-10-His (human)
T2 construct: Whether the last M of the tag is the start Met of galectin-10 is not clear; also called human Gal10-HIS; humanGal10-His
T2 chain: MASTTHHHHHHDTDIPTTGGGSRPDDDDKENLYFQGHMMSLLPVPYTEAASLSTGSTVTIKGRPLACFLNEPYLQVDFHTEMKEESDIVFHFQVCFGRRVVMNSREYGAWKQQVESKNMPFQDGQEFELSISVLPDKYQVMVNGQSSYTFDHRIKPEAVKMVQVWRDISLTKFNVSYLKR

T3: cynomolgus galectin-10-His, YRT isoform (cynomolgus)
T3 construct: not shown: His tag
T3 chain: T1 chain with K23E, G24A, L31F, F69Y, K70R, I71T, S92R

T4: human galectin-10 as coated in ELISA (soluble galectin-10; tag not given) (human, UniProt Q05315 1-142, limits assumed)
T4 construct: also called coated galectin-10; Gal10
T4 sequence: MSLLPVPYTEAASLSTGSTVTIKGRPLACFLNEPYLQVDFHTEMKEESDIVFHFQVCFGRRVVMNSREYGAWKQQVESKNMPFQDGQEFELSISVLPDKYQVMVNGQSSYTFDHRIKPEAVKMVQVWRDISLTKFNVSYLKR

B1: VHH clone 14E02 (VHH)
VHH: QVQLVESGGGLAQAGGSLRLSCVASGRAAGTYSMAWFRQAPGKEREFVAAITWAGGYTYGADSEKGRFTISRDNAKNTVYLQMNSLKPEDTAVYSCAGGRLFTSQSSAYQYWGQGTQVTVSS
notes: Purified VHH-Myc-His from E. coli; not shown: Myc and His tags of the phagemid vector
B2: scFv 4B10 (periplasmic extract, Myc-tagged) (scFv, not shown: small tags and cut ends)
scFv: QLQLVESGGGLVQPGGSLRLSCAASGFTFSNYWMYWVRQAPGKGLEWVSAIDVGGGTTDYAGSVKGRFTISRDNTKSTVYLQMNTLKPEDTALYYCLRGGSYYGGMDYWGKGTLVTVSSGGGGSGGGGSGGGGSQSALTQPSAVSVSLGQTARITCQGAKLGRYYGIWYQQKPGQAPVQVIYGDSNRPSGIPERFSGSSSGGTATLTISGAQAEDEADYYCQSYESSTSPVFGGGTHLTVL
B3: VHH clone 14F10 (VHH)
VHH: EVQLVESGGGLVQAGDSLRLSCAASGRTFSGYAVGWFRQAPGKEREFVTIISWNGGTHYADSVKGRFAISRDNAKNTVYLQMNNLKPEDTAVYYCAVSPKYYFSPETYNYWGQGTQVTVSS
notes: as for B1
B4: VHH clone 13C10 (VHH)
VHH: QLQLVESGGGLVQAGGSLKLSCAASGRTFNPYTMGWFRQAPGKEREFVAVVSSGGGTYYANSVKGRFTISRDNAKATVYLQMNSLKPEDTAVYYCAAGSIFRWSPMSYDYWGQGTQVTVSS
notes: as for B1
B5: VHH clone 14E10 (VHH)
VHH: ELQLVESGGGLVQAGGSLRLSCAASEGTFRPYAMGWFRQAPRKEREFVAVISLSGAYTYNVNAVKGRFTISRDNAKNTVYLQMNSLTPEDTAIYYCGASRTYYRTDESTYEYWGQGTQVTVSS
notes: as for B1
B6: scFv 4G05 (periplasmic extract, Myc-tagged) (scFv, not shown: small tags and cut ends)
scFv: QLQVVESGGGLVQTGGSLTLSCTTSGFTFSRYWMIWVRQAPGKGLEWVSSIYNDGGNTYYADSVKGRFTISRDNSENTLYLQMNSLKSEDTAVYYCAKLKAAYYGMDYWGKGTLVTVSSGGGGSGGGGSGGGGSSSALTQPSAVSVSLGQTARITCQGANLGRYYGIWYQQKPGQAPVQVIYGDSNRPSGIPERFSGSSSGGTATLTISGAQAEDEADYYCQSYESSTSPVFGGGTHLTVL
B7: scFv 4H10 (periplasmic extract, Myc-tagged) (scFv, not shown: small tags and cut ends)
scFv: QVQLVESGGGLVQPGGSLRLSCAASGFTFDDYAMSWVRQAPGKGLEWVSAISWNGGSTYYAESMKGRFTISRDNAKNTLYLQMNSLKSEDAAVYYCAKDLSASGSYYHTFGSWGQGTQVTVSSGGGGSGGGGSGGGGSQAGLTQPPSVAGTLGKTVTISCAGTSSDVGYGDYVSWYQHIPGTAPKLLIYKVKTRASGIPDRFSGSKSGNTASLTISGLQSGDESDYYCASYKNGGTAVFGGGTHLTVL
B8: VHH clone 13A05 (VHH)
VHH: QVQLVESGGGLVQAGGSLRLSCAASSSSYSMSWFRQAPGKEREFVAIISWSGGTYYDDSVKGRFTVSRDNAKNTVYLQMNSLKPEDTAVYYCAAGTQFSFSYREYDYWGQGTQVTVSS
notes: as for B1
B9: VHH clone 13C06 (VHH)
VHH: B8 VHH with V2L, S32G, I47T, T54F, Q97R, D106H
notes: as for B1
B10: VHH clone 13E07 (VHH)
VHH: ELQVVESGGGLVQAGDSLRLSCAVSGRTFSSYHMMWFRQAPGKEREFVAAIAWRGGTYCANSVKGRCTISRDNAKDTVYLQMNSLKPEDTAVYFCAASLRYVFDPSAMDYWGKGTLVTVSS
notes: as for B1
B11: VHH clone 13D12 (VHH)
VHH: B10 VHH with E1Q, V4L, V24A, I51L, K75Q, L99R, G112A
notes: as for B1
B12: VHH clone 13H07 (VHH)
VHH: QLQLVESGGGLVQAGGSLRLSCVASGRTFSTYAMDWFRQAPGKEREFVAAISWHSAIYYADAVKGRFTISRDNGKNTMYLQMNNLKPEDTAVYFCAAALRYRFNPSAMEYWGKGTLVTVSS
notes: as for B1
B13: VHH clone 1D06 (VHH, not shown: large carriers)
VHH: QLQLVESGGGLVQPGGSLRLSCAASENSVSTYAMGWFRQAPGKEREFVAAITRAGGNTYNADSVKGRFTISRDNAENTIYLQMNSLKPEDTAVYSCAAGPRYSTISTMFPYWGQGTQVTVSS
notes: Positive control from the previous human-specific panel; also called 1D6
B14: VHH clone 13C07 (VHH)
VHH: QLQVVESGGGLVQAGGSLRLSCAASSSAYSMAWFRQAPGKEREFVAAITWSGGSHHDDSVKGRFTISRDGAKNTVYLQMNSLKPEDTAVYYCAVGTLYSFSYRDYDYWGQGTQVTVSS
notes: as for B1
B15: VHH clone 13G12 (VHH)
VHH: B14 VHH with A32G, A47V, T49S, H56Y, S101R
notes: as for B1

Experiments:
[1] = target: T1, cynomolgus galectin-10-His, WGS isoform; test: ELISA, Gal10-His coated at 1 ug/mL, VHH titrated, anti-Myc-HRP
Protocol: (§1) The binding capacity of the 15 VHH clones was analysed by ELISA. Briefly, a Maxisorp plate was coated overnight with human or cynomolgus WGS or YRT isoforms galectin-10-His at 1 μg/mL and blocked with PBS 1% casein, before being incubated with a serial dilution of the VHH (from 4 μM, dilution 1/3, 12 points of dilutions). […] Absorbance was measured at 450 nm (reference at 620 nm) with Tecan instrument. Finally, the raw data (OD values) were plotted on GraphPad Prism 7.01. […] As a positive control, clone 1D06 from the previous human specific panel was included.

human galectin-10-His = target: T2, human galectin-10-His; test: as above
Protocol: as §1

[2] = target: T3, cynomolgus galectin-10-His, YRT isoform; test: as above
Protocol: as §1

[3] = target: T4, human galectin-10 as coated in ELISA …; test: ELISA, scFv periplasmic extract on coated soluble galectin-10, anti-Myc-HRP
Protocol: In order to test the binding capacity of the scFvs to galectin-10, an ELISA binding assay was established. Briefly, a Maxisorp plate was coated with soluble galectin-10 (1 μg/mL), then blocked with casein, before being incubated with the periplasmic extract (dilution 1/5 in PBS) containing the scFv-Myc. Detection of the binder was carried out with an anti-Myc-HRP antibody. Absorbance was measured at 450 nm (reference at 620 nm) with Tecan instrument. A significant number of galectin-10 scFv binders were isolated after the second round of selection (45-87% of binders).

Row | Binder | Bmax (OD values) [1] | Bmax (OD values) (human galectin-10-His) | Bmax (OD values) [2] | PERI-ELISA binding (OD values) [3] | EC50 [1] | EC50 [2] | EC50 (human galectin-10-His) | binding result [1] | binding result [2]
1 | B1 | 1.8 OD | 0.7 OD | 2.1 OD | – | – | – | – | – | –
2 | B2 | – | – | – | 2.44 OD | – | – | – | – | –
3 | B3 | 2.6 OD | 0.5 OD | 3 OD | – | 60.4 nM | 3 nM | – | – | –
4 | B4 | 2.3 OD | 1 OD | 2.7 OD | – | – | 186 nM | – | – | –
5 | B5 | 1.4 OD | 0.5 OD | 2.7 OD | – | – | 15.8 nM | – | – | –
6 | B6 | – | – | – | 3.8 OD | – | – | – | – | –
7 | B7 | – | – | – | 3.48 OD | – | – | – | – | –
8 | B8 | 2.7 OD | 1.8 OD | 2.9 OD | – | 77.8 nM | 66.3 nM | 69.7 nM | – | –
9 | B9 | 2.9 OD | 2.8 OD | 2.9 OD | – | 10.3 nM | 16.2 nM | 27.5 nM | – | –
10 | B10 | 2.3 OD | 1.1 OD | 2.4 OD | – | 371 nM | – | – | – | –
11 | B11 | 1.3 OD | 0.8 OD | 2.4 OD | – | – | 119 nM | – | – | –
12 | B12 | 2.7 OD | 1.5 OD | 3.1 OD | – | 15.6 nM | 1.3 nM | 180 nM | – | –
13 | B13 | 0 OD | 1.2 OD | 0 OD | – | – | – | 90.7 nM | no binding (tested: up to 4 uM VHH) | no binding (tested: up to 4 uM VHH)
14 | B14 | 2.9 OD | 1.3 OD | 2.8 OD | – | 7.1 nM | 33.2 nM | 107 nM | – | –
15 | B15 | 2.9 OD | 1.6 OD | 3.1 OD | – | 11.8 nM | 3.1 nM | 141 nM | – | –
